Experimental data as given in publication PMC10528150.

Target: cytochrome c oxidase (ferrocytochrome c:oxygen oxidoreductase), solubilized complex

| Activity in the cytochrome c oxidase reaction, % of WT | Activity, s^−1, in the cytochrome c oxidase reaction (oxygen uptake by solubilized CcO with ascorbate and TMPD, 25 °C) | Substance |
| --- | --- | --- |
| 25% | 54 s⁻¹ | cytochrome c with substitutions E69K/K72E (from UniProt P00004 1-105) (natural protein) |
| < 1% | < 1 s⁻¹ | cytochrome c with substitutions K8E/E69K/K72E/K86E/K87E (from UniProt P00004 1-105) (natural protein) |
